Test results published in patent US20240368565A1 (PROMEGA, published 2024).

Experiments:
[1] = target: Aga2-15xGly/Ser-EGFP-4xGly/Ser-HaloTag[3-19]-4xGly/Ser-…; assay: flow cytometry of yeast displaying the tag; reporter bound, washed, then JF549 HaloTag ligand
[2] = target: Aga2-15xGly/Ser-EGFP-4xGly/Ser-HaloTag[3-19]-4xGly/Ser-VS-HiBiT; assay: as above
[3] = target: Aga2-15xGly/Ser-EGFP-4xGly/Ser-HaloTag[3-19]-4xGly/Ser-…; assay: as above; remark: listed apart in the source
[4] = target: Aga2-15xGly/Ser-4xGly/Ser-HaloTag[3-19]-4xGly/Ser-VS-HiBiT; assay: as above
[5] = target: Aga2-15xGly/Ser-EGFP-4xGly/Ser-HaloTag[3-19]-4xGly/Ser-…; assay: as above; remark: listed apart in the source
[6] = target: T1, Biotin-HaloTag[3-19] (I2R)-4xGly/Ser-VS-HiBiT (N-terminal biotin); assay: BLI; biotin-peptide on streptavidin probe; PBST, 25 C
T1 construct: Synthetic peptide; also called HaloTag[3-19](12R)-4×Gly/Ser-VS-HiBiT; DualTag peptide
T1 peptide: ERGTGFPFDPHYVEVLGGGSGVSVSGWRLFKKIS

B1: HaloTag[22-297](M2F)-12xGly/Ser-LgBiT-3xGly/Ser-6xHis (other)
chain: MFHYVDVGPRDGTPVLFLHGNPTSSYVWRNIIPHVAPTHRCIAPDLIGMGKSDKPDLGYFFDDHVRFMDAFIEALGLEEVVLVIHDWGSALGFHWAKRNPERVKGIAFMEFIRPIPTWDEWPEFARETFQAFRTTDVGRKLIIDQNVFIEGTLPMGVVRPLTEVEMDHYREPFLNPVDREPLWRFPNELPIAGEPANIVALVEEYMDWLHQSPVPKLLFWGTPGVLIPPAEAARLAKSLPNCKAVDIGPGLNLLQEDNPDLIGSEIARWLSTLEISGGSGGSGGGGSGGMVFTLEDFVGDWEQTAAYNLDQVLEQGGVSSLLQNLAVSVTPIQRIVRSGENALKIDIHVIIPYEGLSADQMAQIEEVFKVVYPVDDHHFKVILPYGTLVIDGVTPNMLNYFGRPYEGIAVFDGKKITVTGTLWNGNKIIDERLITPDGSMLFRVTINSGSGHHHHHH
notes: Purified tandem polypeptide reporter (large split-HaloTag fragment fused to LgBiT); also called Reporter
percent of cells in the JF549+ gate [1]: 6.96%
percent of cells in the JF549+ gate [2]: 46.4%
percent of cells in the JF549+ gate [3]: 44.2%
percent of cells in the JF549+ gate [4]: 48.9%
percent of cells in the JF549+ gate [5]: 44.8%
Kd [6]: 1.61 nM
koff [6]: 8.34e-05 s⁻¹
kon [6]: 51900 M⁻¹ s⁻¹
